B1: Tip elongation aberrant protein Tea4 (Schizosaccharomyces pombe (strain ATCC 38366 / 972)), O60132 (parent)
chain: MLHMNSASSADSMEIMESHFDPTQQNDSTIIESRYSPEEYLEQSFEIQRIISGENSEPQTVASQEISDSQEEDTTLTSSQFEDCGTEYNEVVEDDEFRSEDEDDFMDEEEEYALYEAELSSSPSIHEEVIDCNFVHAIRGFEATVEGQVDATKGDMMILLDDSNSYWWLVKMCKNLAIGYLPAEYIETPSERLARLNKYKNSETSNSQQSVTLPPLDIVEKTLEAPSPNFRIKRVTFTCSSNSSDDEMDSENDYEAMVNRTVAENGLEIEFSDSSDSSLSAEYRSESEDHVTDSPAYVDLTELEGGFNQFNSTSFQSTSPLGLEIVETEINGSSTTADSKNSHSPYSKFSSAYPDAENSNISKINISIAGNKELYGNATQSDPSLYSTWIANKHKTASSATVDSPLRRSLSVDAMQSNASFSSYSSTSNTDKSLRPSSYSAVSESSNFTHDVSRDNKEISLNAPKSIIVSQSDSFDTSNVTQDAPNDVEKEPISGQMPNNLSVQSLKQLEVYPIRHSVSIEMPSEKLLSPRLYSSSTPSSPTKGFQKDDEEDSENRKQADKVELSPSSLLRQMSLPVDSSSQSDAQCTTSSVYITAERKAFSQSSIDLSTLSNHHVNNEINRRSFAGGFTSLADELSEMRELLHESPAPLECNEEMVIPTPELDASSAIPSSSISHDEDLLPRKNTEESTSSSSFSSLITSPASLQYDENPFKQSVVAELNNNSSSVPFVDSAHASDIHAYDNDHVSTKNKEFNRRLREFILDPDSLSGLYWSVKSAGVRASRRVSRNIEGESVSSDLDDIFANVLKGLSDEMASLLNTNR
B2: Tip elongation aberrant protein Tea4 (Schizosaccharomyces pombe (strain ATCC 38366 / 972)), O60132 (parent)
chain: B1 chain
partner: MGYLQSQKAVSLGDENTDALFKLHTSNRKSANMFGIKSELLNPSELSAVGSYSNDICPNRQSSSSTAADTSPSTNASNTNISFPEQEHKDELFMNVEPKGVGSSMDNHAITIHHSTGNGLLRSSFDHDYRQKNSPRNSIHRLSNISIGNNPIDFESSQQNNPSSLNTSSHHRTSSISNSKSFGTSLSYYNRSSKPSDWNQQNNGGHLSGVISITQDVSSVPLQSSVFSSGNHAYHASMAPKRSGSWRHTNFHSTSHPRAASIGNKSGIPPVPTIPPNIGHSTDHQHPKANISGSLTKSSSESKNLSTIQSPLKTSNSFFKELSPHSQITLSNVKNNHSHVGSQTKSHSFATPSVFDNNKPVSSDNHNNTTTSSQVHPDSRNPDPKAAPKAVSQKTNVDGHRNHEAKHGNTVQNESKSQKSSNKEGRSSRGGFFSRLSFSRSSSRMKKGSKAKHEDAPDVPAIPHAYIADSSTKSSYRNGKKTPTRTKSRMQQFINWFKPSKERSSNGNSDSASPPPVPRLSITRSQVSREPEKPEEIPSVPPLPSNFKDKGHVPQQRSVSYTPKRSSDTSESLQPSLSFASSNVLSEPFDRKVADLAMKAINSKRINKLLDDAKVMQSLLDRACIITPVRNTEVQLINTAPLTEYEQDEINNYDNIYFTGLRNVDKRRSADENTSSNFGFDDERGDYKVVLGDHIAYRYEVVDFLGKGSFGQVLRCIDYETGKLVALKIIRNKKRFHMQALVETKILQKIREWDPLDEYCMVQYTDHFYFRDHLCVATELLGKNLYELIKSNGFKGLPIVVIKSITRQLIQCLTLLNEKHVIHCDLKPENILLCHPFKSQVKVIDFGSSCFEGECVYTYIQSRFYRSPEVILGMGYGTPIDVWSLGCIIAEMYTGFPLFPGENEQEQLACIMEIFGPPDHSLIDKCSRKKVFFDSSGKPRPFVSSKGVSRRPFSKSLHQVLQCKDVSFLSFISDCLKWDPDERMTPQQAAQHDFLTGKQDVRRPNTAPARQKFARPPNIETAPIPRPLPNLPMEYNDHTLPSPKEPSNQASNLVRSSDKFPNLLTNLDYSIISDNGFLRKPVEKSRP

What was measured:
pp11_schpo dis2, P13681 [1] = variants of: B1; conditions: with pp11_schpo dis2, P13681
Chain of pp11_schpo dis2, P13681 (P13681 whole entry): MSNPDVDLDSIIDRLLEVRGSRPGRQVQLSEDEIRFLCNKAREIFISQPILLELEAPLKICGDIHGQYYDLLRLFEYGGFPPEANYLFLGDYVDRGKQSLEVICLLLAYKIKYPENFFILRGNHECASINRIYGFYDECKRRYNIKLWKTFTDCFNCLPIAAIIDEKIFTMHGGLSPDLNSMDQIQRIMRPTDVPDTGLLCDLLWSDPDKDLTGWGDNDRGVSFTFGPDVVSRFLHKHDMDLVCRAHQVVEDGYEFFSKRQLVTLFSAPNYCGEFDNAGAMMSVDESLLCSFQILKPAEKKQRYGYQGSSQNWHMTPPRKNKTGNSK

pp11_schpo dis2, P13681 [2] = variants of: B1; conditions: with pp11_schpo dis2, P13681; remark: listed apart in the source
pom1_schpo pom1, Q09690 [3] = variants of: B2; conditions: with pom1_schpo pom1, Q09690
pom1_schpo pom1, Q09690 [4] = variants of: B2; conditions: with pom1_schpo pom1, Q09690; remark: listed apart in the source

| effect of a mutation on the interaction (pp11_schpo dis2, P13681 [1]) | effect of a mutation on the interaction (pp11_schpo dis2, P13681 [2]) | effect of a mutation on the interaction (pom1_schpo pom1, Q09690 [3]) | effect of a mutation on the interaction (pom1_schpo pom1, Q09690 [4]) | Variant |
| --- | --- | --- | --- | --- |
| disrupting interaction | decreasing interaction |  |  | W167A;W168A |
| disrupting interaction |  |  |  | V235A;F237A |
|  |  | decreasing interaction | disrupting interaction | W167A;W168A |

Source: IntAct's records for PubMed 21703453
